Our source for the Km values is patent US12564600B2, “System for enhancing therapeutic compliance of the anti-cancer compound E7766” (Eisai R&D Management Co., Ltd., priority 2019, dated 2026).

Substrate in this series: O=[P@]1(S)OC[C@H]2OC3[C@H](F)[C@@H]2O[P@](=O)(S)OC[C@H]2O[C@H]([C@H](F)[C@@H]2O1)n1cnc2c(ncnc21)NC/C=C/CNc1ncnc2c1ncn23
As to the kind of experiment: Uptake in HEK293 cells overexpressing OATP1B1. The settings on record: other: Simcyp input parameter, Table 3; 37.0 °C. It is filed as in vitro ADME, human. As to the method:
TransportoCells™ (Corning, N.Y., USA) expressing OATP2B1, NTCP, and HEK293-FT cells stably transfected with the vector containing OATP1B1 cDNA or OATP1B3 cDNA or empty vector were grown in a Dulbecoo's modified Eagle's medium fortified with 10% fetal calf serum and 2 mmol/L sodium butyrate (for NTCP only) in a humidified incubator at 37° C. and 5% CO2. Cells were harvested at 90% confluence and then seeded in poly-D-lysine-coated 24-well 24 h prior to transporter assay. Cells were washed twice and pre-incubated with 200 μL of pre-warmed Krebs-Henseleit buffer. After pre-incubation, cells were incubated with 3 or 10 μmol L-1 of Compound 1 in presence or absence of 100 μmol L-1 of inhibitors (Rifamycin SV for OATP2B1, Troglitazone for NTCP, Rifamycin for OATP1B1 and OATP1B3). The transport reaction was terminated by aspirating the buffer from the wells at designated time. After washing three times with 200 μL of ice-cold Krebs-Henseleit buffer, the cells were lysed and the resulting cellular lysates were analyzed by LC-MS/MS.
Concentration-dependent uptake of Compound 1 via OATP1B1 and OATP1B3 were conducted with a concentration range of 0.25-100 μmol L-1 under linear uptake. All experiments were run in triplicates.

As usually defined, the Km is the concentration of substrate that gives half-maximal velocity.

B1: OATP1B1 (Homo sapiens) (protein)
chain: MDQNQHLNKTAEAQPSENKKTRYCNGLKMFLAALSLSFIAKTLGAIIMKSSIIHIERRFEISSSLVGFIDGSFEIGNLLVIVFVSYFGSKLHRPKLIGIGCFIMGIGGVLTALPHFFMGYYRYSKETNINSSENSTSTLSTCLINQILSLNRASPEIVGKGCLKESGSYMWIYVFMGNMLRGIGETPIVPLGLSYIDDFAKEGHSSLYLGILNAIAMIGPIIGFTLGSLFSKMYVDIGYVDLSTIRITPTDSRWVGAWWLNFLVSGLFSIISSIPFFFLPQTPNKPQKERKASLSLHVLETNDEKDQTANLTNQGKNITKNVTGFFQSFKSILTNPLYVMFVLLTLLQVSSYIGAFTYVFKYVEQQYGQPSSKANILLGVITIPIFASGMFLGGYIIKKFKLNTVGIAKFSCFTAVMSLSFYLLYFFILCENKSVAGLTMTYDGNNPVTSHRDVPLSYCNSDCNCDESQWEPVCGNNGITYISPCLAGCKSSSGNKKPIVFYNCSCLEVTGLQNRNYSAHLGECPRDDACTRKFYFFVAIQVLNLFFSALGGTSHVMLIVKIVQPELKSLALGFHSMVIRALGGILAPIYFGALIDTTCIKWSTNNCGTRGSCRTYNSTSFSRVYLGLSSMLRVSSLVLYIILIYAMKKKYQEKDINASENGSVMDEANLESLNKNKHFVPSAGADSETHC
notes: expressed in transfected cells; host or cells: HEK293-FT
As to B1, the Km stood at 2.200 µM.
